Assay results as given in US20140274782A1, “AFFINITY REAGENTS AND METHODS FOR DETECTION, PURIFICATION, AND PROTEOMIC ANALYSIS OF METHYLATED PROTEINS” (The Board of Trustees of the Leland Stanford Junior …, priority 2013, published 2014).

T1: G9a and GLP (Homo sapiens, UniProt Q96KQ7+Q9H9B1)
T1 sequence (Q96KQ7 2-1210 limits assumed): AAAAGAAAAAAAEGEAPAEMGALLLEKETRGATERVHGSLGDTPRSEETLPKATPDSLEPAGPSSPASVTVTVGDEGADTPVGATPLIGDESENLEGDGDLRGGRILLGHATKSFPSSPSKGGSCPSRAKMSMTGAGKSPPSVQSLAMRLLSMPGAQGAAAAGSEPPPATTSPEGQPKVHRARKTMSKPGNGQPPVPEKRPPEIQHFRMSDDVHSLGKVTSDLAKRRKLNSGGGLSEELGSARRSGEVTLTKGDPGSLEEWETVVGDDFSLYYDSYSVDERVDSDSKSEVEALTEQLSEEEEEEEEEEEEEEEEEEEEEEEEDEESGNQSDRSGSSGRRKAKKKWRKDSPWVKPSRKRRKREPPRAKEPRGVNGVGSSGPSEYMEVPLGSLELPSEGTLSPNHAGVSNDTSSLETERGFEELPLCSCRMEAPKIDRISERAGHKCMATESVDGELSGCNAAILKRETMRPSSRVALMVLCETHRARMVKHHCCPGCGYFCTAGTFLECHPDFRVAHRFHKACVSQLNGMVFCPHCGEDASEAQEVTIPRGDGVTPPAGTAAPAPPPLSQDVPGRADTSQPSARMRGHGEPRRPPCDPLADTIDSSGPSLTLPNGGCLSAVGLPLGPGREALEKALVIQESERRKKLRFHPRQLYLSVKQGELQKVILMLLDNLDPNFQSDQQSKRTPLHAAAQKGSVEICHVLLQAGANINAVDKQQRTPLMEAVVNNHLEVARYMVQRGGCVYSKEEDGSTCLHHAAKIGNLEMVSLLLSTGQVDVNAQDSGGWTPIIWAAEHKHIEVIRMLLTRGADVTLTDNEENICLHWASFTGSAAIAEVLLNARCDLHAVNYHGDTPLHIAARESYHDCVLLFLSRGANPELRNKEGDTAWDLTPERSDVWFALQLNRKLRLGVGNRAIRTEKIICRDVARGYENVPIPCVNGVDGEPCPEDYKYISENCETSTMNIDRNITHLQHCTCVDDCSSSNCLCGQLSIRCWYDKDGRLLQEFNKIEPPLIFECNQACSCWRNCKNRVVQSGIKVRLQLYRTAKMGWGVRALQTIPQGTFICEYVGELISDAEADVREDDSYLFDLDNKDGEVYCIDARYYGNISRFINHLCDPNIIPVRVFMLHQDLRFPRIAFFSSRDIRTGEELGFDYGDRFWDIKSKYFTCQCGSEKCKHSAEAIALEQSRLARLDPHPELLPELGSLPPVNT
T1 sequence (Q9H9B1 2-1298 limits assumed): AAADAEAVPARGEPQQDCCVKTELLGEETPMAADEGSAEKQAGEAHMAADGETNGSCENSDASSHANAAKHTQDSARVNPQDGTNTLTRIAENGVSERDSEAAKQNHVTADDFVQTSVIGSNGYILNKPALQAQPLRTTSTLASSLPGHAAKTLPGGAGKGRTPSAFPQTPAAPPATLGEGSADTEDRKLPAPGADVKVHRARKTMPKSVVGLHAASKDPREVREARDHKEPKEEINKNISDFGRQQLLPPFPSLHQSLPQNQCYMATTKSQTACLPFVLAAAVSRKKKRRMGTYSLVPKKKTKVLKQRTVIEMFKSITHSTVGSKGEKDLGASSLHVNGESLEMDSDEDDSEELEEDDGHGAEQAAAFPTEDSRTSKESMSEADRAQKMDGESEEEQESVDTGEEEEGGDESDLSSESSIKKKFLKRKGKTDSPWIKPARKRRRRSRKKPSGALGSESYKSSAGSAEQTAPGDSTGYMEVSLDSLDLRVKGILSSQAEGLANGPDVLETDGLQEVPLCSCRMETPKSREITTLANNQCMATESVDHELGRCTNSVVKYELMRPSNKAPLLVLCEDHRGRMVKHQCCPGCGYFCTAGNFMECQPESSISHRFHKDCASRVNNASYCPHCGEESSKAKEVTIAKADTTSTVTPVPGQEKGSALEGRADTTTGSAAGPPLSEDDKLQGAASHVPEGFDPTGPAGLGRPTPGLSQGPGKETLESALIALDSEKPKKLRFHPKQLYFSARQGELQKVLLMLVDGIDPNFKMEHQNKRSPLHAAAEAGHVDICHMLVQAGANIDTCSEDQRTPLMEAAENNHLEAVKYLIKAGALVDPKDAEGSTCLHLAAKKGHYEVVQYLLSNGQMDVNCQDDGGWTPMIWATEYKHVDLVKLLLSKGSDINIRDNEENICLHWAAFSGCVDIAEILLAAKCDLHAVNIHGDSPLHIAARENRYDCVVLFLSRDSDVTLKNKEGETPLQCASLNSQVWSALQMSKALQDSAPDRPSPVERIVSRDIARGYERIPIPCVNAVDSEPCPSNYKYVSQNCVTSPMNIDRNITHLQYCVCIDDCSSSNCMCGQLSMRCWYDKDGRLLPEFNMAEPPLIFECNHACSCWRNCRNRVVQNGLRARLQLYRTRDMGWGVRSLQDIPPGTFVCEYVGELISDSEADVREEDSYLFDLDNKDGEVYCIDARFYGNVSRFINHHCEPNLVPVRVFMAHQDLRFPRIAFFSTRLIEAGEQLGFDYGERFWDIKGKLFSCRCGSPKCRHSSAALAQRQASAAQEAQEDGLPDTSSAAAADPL

B1: CKAP2 (protein, UniProt Q8WWK9 1-683, looked up)
Cytoskeleton-associated …: MSTPAVPQDLQLPPSQRAQSAFKEQRRQKLKEHLLRRKTLFAYKQENEMLSSSRDQRVVTSEDQVQEGTKVLKLKTKMADKENMKRPAESKNNTVVGKHCIPLKPSNELTNSTVVIDTHKPKDSNQTPHLLLTEDDPQSQHMTLSQAFHLKNNSKKKQMTTEKQKQDANMPKKPVLGSYRGQIVQSKINSFRKPLQVKDESSAATKKLSATIPKATKPQPVNTSSVTVKSNRSSNMTATTKFVSTTSQNTQLVRPPIRSHHSNTRDTVKQGISRTSANVTIRKGPHEKELLQSKTALSSVKTSSSQGIIRNKTLSRSIASEVIARPASLSNDKLMEKSEPVDQRRHTAGKAIVDSRSAQPKETSEERKARLSEWKAGKGRVLKRPPNSVVTQHEPAGQNEKPVGSFWTTMAEEDEQRLFTEKVNNTFSECLNLINEGCPKEDILVTLNDLIKNIPDAKKLVKYWICLALIEPITSPIENIIAIYEKAILAGAQPIEEMRHTIVDILTMKSQEKANLGENMEKSCASKEEVKEVSIEDTGVDVDPEKLEMESKLHRNLLFQDCEKEQDNKTKDPTHDVKTPNTETRTSCLIKYNVSTTPYLQSVKKKVQFDGTNSAFKELKFLTPVRRSRRLQEKTSKLPDMLKDHYPCVSSLEQLTELGRETDAFVCRPNAALCRVYYEADTT
B2: TUBA1C (protein, UniProt Q9BQE3 1-449, looked up)
Tubulin alpha-1C chain: MRECISIHVGQAGVQIGNACWELYCLEHGIQPDGQMPSDKTIGGGDDSFNTFFSETGAGKHVPRAVFVDLEPTVIDEVRTGTYRQLFHPEQLITGKEDAANNYARGHYTIGKEIIDLVLDRIRKLADQCTGLQGFLVFHSFGGGTGSGFTSLLMERLSVDYGKKSKLEFSIYPAPQVSTAVVEPYNSILTTHTTLEHSDCAFMVDNEAIYDICRRNLDIERPTYTNLNRLISQIVSSITASLRFDGALNVDLTEFQTNLVPYPRIHFPLATYAPVISAEKAYHEQLTVAEITNACFEPANQMVKCDPRHGKYMACCLLYRGDVVPKDVNAAIATIKTKRTIQFVDWCPTGFKVGINYQPPTVVPGGDLAKVQRAVCMLSNTTAVAEAWARLDHKFDLMYAKRAFVHWYVGEGMEEGEFSEAREDMAALEKDYEEVGADSADGEDEGEEY
B3: NOSIP (protein, UniProt Q9Y314 1-301, looked up)
Nitric oxide …: MTRHGKNCTAGAVYTYHEKKKDTAASGYGTQNIRLSRDAVKDFDCCCLSLQPCHDPVVTPDGYLYEREAILEYILHQKKEIARQMKAYEKQRGTRREEQKELQRAASQDHVRGFLEKESAIVSRPLNPFTAKALSGTSPDDVQPGPSVGPPSKDKDKVLPSFWIPSLTPEAKATKLEKPSRTVTCPMSGKPLRMSDLTPVHFTPLDSSVDRVGLITRSERYVCAVTRDSLSNATPCAVLRPSGAVVTLECVEKLIRKDMVDPVTGDKLTDRDIIVLQRGGTGFAGSGVKLQAEKSRPVMQA
B4: TRIM28 (protein, UniProt Q13263 2-835, looked up)
Transcription intermediary …: AASAAAASAAAASAASGSPGPGEGSAGGEKRSTAPSAAASASASAAASSPAGGGAEALELLEHCGVCRERLRPEREPRLLPCLHSACSACLGPAAPAAANSSGDGGAAGDGTVVDCPVCKQQCFSKDIVENYFMRDSGSKAATDAQDANQCCTSCEDNAPATSYCVECSEPLCETCVEAHQRVKYTKDHTVRSTGPAKSRDGERTVYCNVHKHEPLVLFCESCDTLTCRDCQLNAHKDHQYQFLEDAVRNQRKLLASLVKRLGDKHATLQKSTKEVRSSIRQVSDVQKRVQVDVKMAILQIMKELNKRGRVLVNDAQKVTEGQQERLERQHWTMTKIQKHQEHILRFASWALESDNNTALLLSKKLIYFQLHRALKMIVDPVEPHGEMKFQWDLNAWTKSAEAFGKIVAERPGTNSTGPAPMAPPRAPGPLSKQGSGSSQPMEVQEGYGFGSGDDPYSSAEPHVSGVKRSRSGEGEVSGLMRKVPRVSLERLDLDLTADSQPPVFKVFPGSTTEDYNLIVIERGAAAAATGQPGTAPAGTPGAPPLAGMAIVKEEETEAAIGAPPTATEGPETKPVLMALAEGPGAEGPRLASPSGSTSSGLEVVAPEGTSAPGGGPGTLDDSATICRVCQKPGDLVMCNQCEFCFHLDCHLPALQDVPGEEWSCSLCHVLPDLKEEDGSLSLDGADSTGVVAKLSPANQRKCERVLLALFCHEPCRPLHQLATDSTFSLDQPGGTLDLTLIRARLQEKLSPPYSSPQEFAQDVGRMFKQFNKLTEDKADVQSIIGLQRFFETRMNEAFGDTKFSAVLVEPPPMSLPGAGLSSQELSGGPGDGP

Assays:
[1] = test system: 3×MBT domain of L3MBTL1; experiment: Triple SILAC pull-down, 3xMBT/3xMBTD355N ratio (cytoplasmic, nuclear and chromatin fractions of 293T cells); assay type: binding, human; conditions: SILAC ratio 3xMBT vs 3xMBTD355N pull-down, 293T cells, all values in log base 2; for 3xMBT/D355N UNC Heavy: experiment with UNC0638 in heavy SILAC media; for 3xMBT/D355N UNC Light: experiment with UNC0638 in light SILAC media;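 on all read-outs here: proteins quantified with MaxQuant, requiring at least two unique peptides and quantification in both label directions, normalized to the mean of proteins from a digested loading control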
[2] = molecular target: T1, G9a and GLP; experiment: Triple SILAC pull-down after UNC0638 treatment of 293T cells, DMSO/UNC0638 ratio of protein captured by 3×MBT; assay type: cell-based; parameters: cells were treated for 24 hours with UNC0638 at 2.5 μM or DMSO vehicle control; endogenous in cells; host or cells: HEK 293T; conditions: all values in log base 2; for Relative to UNC0638 UNC Heavy / Relative to UNC0638 UNC Light: SILAC ratio DMSO relative to UNC0638, pull-down with 3xMBT; for Relative to UNC0638 UNC Heavy: UNC0638 in heavy SILAC media; for Relative to UNC0638 UNC Light: UNC0638 in light SILAC media; for Relative to UNC0638 Average: average of UNC Light and UNC Heavy experiments;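 on all read-outs here: mass spectrometry (Q-Exactive) SILAC quantitation, DMSO/UNC0638 ratio computed after subtracting 3×MBTD355N mutant pull-down background, only proteins with at least twofold 3×MBT over mutant signal considered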

Row | Molecule | 3xMBT/D355N UNC Heavy [1] | 3xMBT/D355N UNC Light [1] | Relative to UNC0638 UNC Heavy [2] | Relative to UNC0638 UNC Light [2] | Relative to UNC0638 Average [2]
1 | B1 | −1.81 log base 2 | −1.33 log base 2 | −0.12 log base 2 | 0.05 log base 2 | −0.03 log base 2
2 | B2 | 0.42 log base 2 | 1.45 log base 2 | −0.83 log base 2 | 0.93 log base 2 | 0.05 log base 2
3 | B3 | 1.54 log base 2 | 2.28 log base 2 | 0.03 log base 2 | −0.11 log base 2 | −0.04 log base 2
4 | B4 | 1.05 log base 2 | 1.28 log base 2 | 0.01 log base 2 | 0.10 log base 2 | 0.06 log base 2
